Results taken from patent publication US20080227720A1 (MOREHOUSE SCHOOL OF MEDICINE, published 2008).

Biological target: CXCR4 receptor (human, UniProt P61073 1-352)
Experiment: cell-based or functional assay

Chain of CXCR4 receptor (P61073 whole entry): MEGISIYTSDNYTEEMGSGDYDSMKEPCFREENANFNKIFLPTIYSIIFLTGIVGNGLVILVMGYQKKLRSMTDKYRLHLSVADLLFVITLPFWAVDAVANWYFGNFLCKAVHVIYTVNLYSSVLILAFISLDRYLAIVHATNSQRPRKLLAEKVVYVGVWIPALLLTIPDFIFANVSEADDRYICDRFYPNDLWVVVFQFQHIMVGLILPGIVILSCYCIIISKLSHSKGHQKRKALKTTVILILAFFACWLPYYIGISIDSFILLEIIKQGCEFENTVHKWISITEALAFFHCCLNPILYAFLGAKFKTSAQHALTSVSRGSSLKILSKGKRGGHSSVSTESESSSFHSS

Binder | apoptosis relative to the full Nef protein at an equivalent molar ratio | apoptosis relative to the full gp 120 protein at an equivalent molar ratio
NAACAWLEAQ [Nef 10 mer peptide spanning the 50-60 motif (NAACAWLEAQ)] | ~100 % of the apoptosis observed for the full Nef protein | –
GRAFYTTKY [Gp120 9 mer peptide spanning amino acids 315-324 (GRAFYTTKY)] | – | ~60 % of the apoptosis observed from the full gp 120 protein
